The values that follow come from PMC10837013, “Synergistic induction of phytoalexins in Nicotiana attenuata by jasmonate and ethylene signaling mediated by NaWRKY70”.

For the series, the target named is T1, NaWRKY70 (Nicotiana attenuata, UniProt A0A1J6IGI0 1-225).
T1 chain: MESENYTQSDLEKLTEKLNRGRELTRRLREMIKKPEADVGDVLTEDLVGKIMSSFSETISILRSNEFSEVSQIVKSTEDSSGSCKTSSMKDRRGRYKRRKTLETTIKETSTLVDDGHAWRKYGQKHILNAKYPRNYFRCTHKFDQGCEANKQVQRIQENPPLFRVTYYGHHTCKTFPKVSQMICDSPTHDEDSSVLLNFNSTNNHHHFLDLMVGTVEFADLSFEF
The series is described as follows: EMSA; Chemiluminescence EMSA kit (Beyotime), manufacturer's protocol; buffer, salt, pH and temperature not stated. The conditions noted are these: protein: recombinant; tags: GST (pGEX-4T-1); chain copies: 0; label: biotin. (In general: In EMSA bound probe runs differently from free probe, usually more slowly.)

B1: NaF6'H1 mProbe 1 (dsDNA)
DNA 1: GGTCTCTTTAGCTCTACCAACTATTC
DNA 2: GAATAGTTGGTAGAGCTAAAGAGACC
For the molecule B1, the binding result is reported as “no binding”.
